From IntAct's records for PubMed 16319069

B1: 5-hydroxytryptamine receptor 2C (Homo sapiens), P28335 (parent)
chain: MVNLRNAVHSFLVHLIGLLVWQSDISVSPVAAIVTDIFNTSDGGRFKFPDGVQNWPALSIVIIIIMTIGGNILVIMAVSMEKKLHNATNYFLMSLAIADMLVGLLVMPLSLLAILYDYVWPLPRYLCPVWISLDVLFSTASIMHLCAISLDRYVAIRNPIEHSRFNSRTKAIMKIAIVWAISIGVSVPIPVIGLRDEEKVFVNNTTCVLNDPNFVLIGSFVAFFIPLTIMVITYCLTIYVLRRQALMLLHGHTEEPPGLSLDFLKCCKRNTAEEENSANPNQDQNARRRKKKERRPRGTMQAINNERKASKVLGIVFFVFLIMWCPFFITNILSVLCEKSCNQKLMEKLLNVFVWIGYVCSGINPLVYTLFNKIYRRAFSNYLRCNYKVEKKPPVRQIPRVAATALSGRELNVNIYRHTNEPVIEKASDNEPGIEMQVENLELPVNPSSVVSERISSV

Variants of: B1
Conditions: with arrb2_mouse Arrb2, Q91YI4
Sequence of arrb2_mouse Arrb2, Q91YI4 (Q91YI4 whole entry): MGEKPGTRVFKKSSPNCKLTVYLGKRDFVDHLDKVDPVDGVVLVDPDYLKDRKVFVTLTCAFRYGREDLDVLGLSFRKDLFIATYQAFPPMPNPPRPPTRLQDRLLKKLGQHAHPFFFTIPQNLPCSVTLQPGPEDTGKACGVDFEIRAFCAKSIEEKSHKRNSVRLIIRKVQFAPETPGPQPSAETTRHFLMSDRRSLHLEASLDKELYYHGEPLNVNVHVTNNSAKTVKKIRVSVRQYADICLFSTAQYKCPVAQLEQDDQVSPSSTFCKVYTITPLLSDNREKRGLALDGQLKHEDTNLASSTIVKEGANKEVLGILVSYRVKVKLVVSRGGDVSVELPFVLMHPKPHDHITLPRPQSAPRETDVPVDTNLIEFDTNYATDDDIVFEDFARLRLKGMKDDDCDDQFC

effect of a mutation on the interaction	Variant
decreasing interaction	P159A
